Assay: yeast display, Sf9 membrane polyspecificity reagent, FACS + sequencing; frameworks hold sequencing errors
Method in brief: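 Genes from sorted yeast were amplified by colony PCR, read by MiSeq 2 × 250 sequencing and filtered on CDR length. These cells carried a synthetic nanobody library in Saccharomyces cerevisiae BJ5465 and were sorted by FACS into low and high (top ~1%) gates on anti-HA and streptavidin fluorescence. Polyreactivity is labelled according to the gate of origin.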

In the case of “QVQLVESGGGLVQAGGSLRLSCAASGSIFDDYAMGWSRQAPGKERELVAASSGGVSTNYADSVKGRFTISRDNAKNTVYLQMNSLKPEDTAVYYCNADYAGAYIHDYWGKGTQVTVSS”, the “polyreactivity (PSR sort gate)” value is reported as “low polyreactivity”.

In the case of “QVQLVESGGGLVQAGGSLRLSCAASGSIFDDYAMGWYRQAPGKERELVAAISWSGGRTYYADSVKGRFTISRDNAKTTVYLQMNSLKPEDTAVYDCAATTGVRSRRYYYWGQGTQVTVSS”, the “polyreactivity (PSR sort gate)” value is reported as “low polyreactivity”.

For “QVQLVESGGGLVQAGGSLRLSCAASGSIFDDYAMGWYRQAPGKERELVAAITTGGGRTYYADSVKGRFTISRDNAKNTVYLQMNSLKPEDTAVYYCNAKAVRGYGTWRDGSISYGMDYWGQGTQVTVSS”, the “polyreactivity (PSR sort gate)” value was “high polyreactivity”.

With “QVQLVESGGGLVQAGGSLRLSCAASGSIFDDYAMGWYRQAPGKERELVAAMSWSGGRTYYADSVKGRFTISRDYAKNTVYLQMNSLNPEDTAVYYCAATTGVRSRRYYYWGQGTLVTVSS” the “polyreactivity (PSR sort gate)” value was “low polyreactivity”.

In the case of “QVQLVESGGGLVQAGGSLRLSCAASGSIFDDYAMGWYRQAPGNERELVAAITSGGSTYYADSVKGRFTISRDNAKNTVYLQMNSLKPEDTAVYYWAAPENKSDEYDYWGQGTQVTVSS”, the “polyreactivity (PSR sort gate)” value is reported as “low polyreactivity”.

In the case of “QVQLVESGGGLVQAGGSLRLSCAASGSIFDENAMGWYRQAPGKERELVAAITGSGVRTYYADSVKGRFTISRDNAKNTVYLQMNSLKPEDTAVYYCNRVKSGSYKFGYWGQGTQVTVSS”, the “polyreactivity (PSR sort gate)” value is reported as “high polyreactivity”.

For “QVQLVESGGGLVQAGGSLRLSCAASGSIFDFYAMGWYRQAPGKERELVAAISWSGGNTYYADSVKGRFTISRDNAKNTVYLQMNSLKPEDTAVYYCNRGSIWRLLTGDFDYWGQGTQVTVSS”, the “polyreactivity (PSR sort gate)” value was “low polyreactivity”.

With “QVQLVESGGGLVQAGGSLRLSCAASGSIFDGNAMGWYRKATGKERELVAAITNSGGSTYYADSVNGRFTISPENAMNSVYLQKNSLKPEDTAVYYCNALPFAWRRYRWLRTMYYWGQGTQVTVSS” the “polyreactivity (PSR sort gate)” value was “low polyreactivity”.

With “QVQLVESGGGLVQAGGSLRLSCAASGSIFDGNGMGWSRQAPGKERELVASISGDGSTNYADSVKGRFTISRDNAKNTVYLQMNSLKPEDTAVYYCATDDPLSQINEQGMDYWGQGTQVTVSS” the “polyreactivity (PSR sort gate)” value was “low polyreactivity”.

In the case of “QVQLVESGGGLVQAGGSLRLSCAASGSIFDGYGMGWSRQAPGKERELVAGITSGGSTYYADSVKGRFTISRDNAKNTVYLQMNSLKPEDTAVYYCATVVRYSNARGDYWGQGTQVTVSS”, the “polyreactivity (PSR sort gate)” value is reported as “low polyreactivity”.

In the case of “QVQLVESGGGLVQAGGSLRLSCAASGSIFDIYAMGWYRQAPGKERELVAAISLSAGSTYYADSVKGRFTISRDNAKNTVYLQMNSLKPEDTAVYYCAKDFFEHSPVSHTYSSSKYDYWGQGTQVTVSS”, the “polyreactivity (PSR sort gate)” value is reported as “low polyreactivity”.

With “QVQLVESGGGLVQAGGSLRLSCAASGSIFDIYGMGWYRQAPGKERELVASISGGAGSTNYADSVKGRFTISRDTAKNTVYLQMNWLKPEDTAVYYCAAEVYVPDYFQHKFDVEYEYWGQGTQVTVSS” the “polyreactivity (PSR sort gate)” value was “low polyreactivity”.

For “QVQLVESGGGLVQAGGSLRLSCAASGSIFDLYAMGWYRQAPGKERELVAGISYSGGSTYYADSVKGRFTISRDNAKNTVYLQMNSLKPEDTAVYHCADDGGWRYHPFSSLFDYWGQGTQVTVSS”, the “polyreactivity (PSR sort gate)” value was “low polyreactivity”.

For “QVQLVESGGGLVQAGGSLRLSCAASGSIFDNAMGWYRQAPGKERELVASIDQSGGSTYYADSVMGRFTISRDNAKNTVYLQMNSLKPEDTAVYYCAADSFTGYPYEMDYWGQGTQVTVSS”, the “polyreactivity (PSR sort gate)” value was “low polyreactivity”.

With “QVQLVESGGGLVQAGGSLRLSCAASGSIFDNNAMGWYRQSPGKEREFVAAISWIGGSTSYADSVKGRFTISSDNAKNTVYLQMNSLKPEDTAVYYCNSLRYYPYGLPIYDYWGQGTQVTVSS” the “polyreactivity (PSR sort gate)” value was “low polyreactivity”.

In the case of “QVQLVESGGGLVQAGGSLRLSCAASGSIFDNYALGWYRQAPGKERELVAAISWNGGDTTYADSVKGRFTISRDNAKNTVYLQMNSLKPEDTAVYYCAADLGYWVADFYWGQGTQVTVSS”, the “polyreactivity (PSR sort gate)” value is reported as “high polyreactivity”.

In the case of “QVQLVESGGGLVQAGGSLRLSCAASGSIFDPYAKGWYRQAPGKEREFVAAITGSGGSTSYADSVKGRFTISRDNAKNTVYLQMNSLKPEDTAVYYCAARRTVEWGQGTQVTVSS”, the “polyreactivity (PSR sort gate)” value is reported as “high polyreactivity”.

In the case of “QVQLVESGGGLVQAGGSLRLSCAASGSIFDPYAMGWYRQAPGKERELVAAITASGSSTYYADSVKGRFTISRDNAKNTVYLQMYSLKPEDTAVYYCAADRANWEYLLSWLGYDYWGQGTQVTVSS”, the “polyreactivity (PSR sort gate)” value is reported as “low polyreactivity”.

With “QVQLVESGGGLVQAGGSLRLSCAASGSIFDPYTMGWYRQAPGKERELVAAINWSGGSTYYADSVKGRCTISRDNAKNTVYLQINSLKPEDTAVSHCNADPHGYYGYGYDYWGQGTQVNVSS” the “polyreactivity (PSR sort gate)” value was “low polyreactivity”.

With “QVQLVESGGGLVQAGGSLRLSCAASGSIFDQYTMGWYRQAPGKARELVAAIRFSGGSTSYADSVKGRFTISRDNAKNTVYLQMISLKPEDTAVYYCNVDAITGGDWEDFDYWGQGTQVTVSS” the “polyreactivity (PSR sort gate)” value was “low polyreactivity”.

With “QVQLVESGGGLVQAGGSLRLSCAASGSIFDRNAMGWYRQAPGKERELVAAISRSSGNTYYADSVKGRFTISRDNAKNTVYLQMNSLKPEDTAVYYCAAKPTYPKRYNYWGQGTQVTVSS” the “polyreactivity (PSR sort gate)” value was “high polyreactivity”.

For “QVQLVESGGGLVQAGGSLRLSCAASGSIFDRNAMGWYRQAPGKERELVSAINSNGGITYYADSVKGRFTISRDNAKNTVYLQMNSLKPEDTAVYYCAAVIRVVYREDHCGQGTQVTVSS”, the “polyreactivity (PSR sort gate)” value was “low polyreactivity”.

For “QVQLVESGGGLVQAGGSLRLSCAASGSIFDRYAMGWYRQAPGKERELVAAISTGGSTNYADSVKGRFTISRDNAKNSVYLQMNSLKPEDTAVYYCAARYLYRMYYWGQGTQVTVSS”, the “polyreactivity (PSR sort gate)” value was “low polyreactivity”.

For “QVQLVESGGGLVQAGGSLRLSCAASGSIFDRYAMGWYRQAPGKERELVAAITTSGGSTSYADSVKGRYTISRDNAKNTVYLQMNSLIPEDTAVYYCAAGYDYVFAFLNEYDYWGQGTQVTVSS”, the “polyreactivity (PSR sort gate)” value was “low polyreactivity”.

With “QVQLVESGGGLVQAGGSLRLSCAASGSIFDRYDMGWYRQAPGKERELVAVINWSGGTTYYADSVKGRFTISRDNAKNTVYLQMNSLKPEDTAVYYCAADGSKPYAMDYWGQGTQVTVSS” the “polyreactivity (PSR sort gate)” value was “high polyreactivity”.

For “QVQLVESGGGLVQAGGSLRLSCAASGSIFDSNAMGWYRQAPGKERELVASITSDGDTYYADSVKGRFTISRDNAKNTVYLQMNSLKPEDTAVYYCAAYVPYSGLDYWGQGTQVTVSS”, the “polyreactivity (PSR sort gate)” value was “low polyreactivity”.

In the case of “QVQLVESGGGLVQAGGSLRLSCAASGSIFDSNAMGWYRQAPGKERELVASITSDGDTYYADSVKGRFTISRDNAKNTVYLQMNSLKPEVTAVYYCAAYVPYSGLDYWGQGTQVTVSS”, the “polyreactivity (PSR sort gate)” value is reported as “low polyreactivity”.

In the case of “QVQLVESGGGLVQAGGSLRLSCAASGSIFDSYAMGWYRQAPGKERELVAGIRWDSGSTYYADSVKGRFTISRDNAKNTVYLQINSLKPEDTAVYYCAADLFDFLLIDGFAVVTYGYWGQGTQVTVSS”, the “polyreactivity (PSR sort gate)” value is reported as “low polyreactivity”.

With “QVQLVESGGGLVQAGGSLRLSCAASGSIFDSYAMGWYRQAPGKEWELVAAISGNSDSTYYADSVKGRFTISRDNAKNTVYLQMNSLKPEDTAVYYCAKEGGNGYDYWGQGTQVTVSS” the “polyreactivity (PSR sort gate)” value was “low polyreactivity”.

In the case of “QVQLVESGGGLVQAGGSLRLSCAASGSIFDTYVMGWYRQAPGKERELVAVISYSGTRTSYADSVKGRFTISRDNAKNTVYLQMNSLKPEDTAVYYCAARVTYYRTYRGRQYGYWGQGTQVTVSS”, the “polyreactivity (PSR sort gate)” value is reported as “high polyreactivity”.

For “QVQLVESGGGLVQAGGSLRLSCAASGSIFDVNAMGWYIQAPGKERELVAAISQRGTRTYYADSVKGRFTISRDNAKNTVYLQMNRLKPEDTAVYYCNRGGWRQYDSWGQGTQVTVSS”, the “polyreactivity (PSR sort gate)” value was “high polyreactivity”.

For “QVQLVESGGGLVQAGGSLRLSCAASGSIFDVNAMGWYRQAPGKEREMVAAISDSGGSTYYADSVKGRFTISRDNAKNTVYLQMNSLKPEDTAVYYCNAVWSWYNYYDFDYWGQGSQVTVSS”, the “polyreactivity (PSR sort gate)” value was “low polyreactivity”.
